In patent publication US5981483:
Values joined by “and” are separate entries in the source; they are usually repeats but may differ in a detail not shown here. Equal entries are not always repeated.

Columns and labels:
[1] = molecular target: purified human TGF-β1 (human) (UniProt P01137)
[2] = molecular target: purified human TGF-β1 (human) (UniProt P01137); remark: listed apart in the source
[3] = molecular target: active TGF-β produced by Mv1Lu cells (mink)
[4] = molecular target: purified human TGF-β1 (human) (UniProt P01137); remark: listed apart in the source
[5] = molecular target: T1, recombinant human BMP-2 (human) (UniProt P12643)
T1 sequence: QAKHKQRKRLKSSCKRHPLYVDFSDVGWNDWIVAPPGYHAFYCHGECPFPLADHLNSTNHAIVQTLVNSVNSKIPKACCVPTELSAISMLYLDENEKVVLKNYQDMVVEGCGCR

[6] = molecular target: TGF-β in dexamethasone-treated rat bone marrow cultures (rat)
BMP-4 [7] = assay: SPR (BIAcore); analyte over immobilized cytokine
BMP-6 [8] = assay: SPR (BIAcore); analyte over immobilized cytokine
TGF-β2 [9] = assay: SPR (BIAcore); analyte over immobilized cytokine
BMP-4 [10] = assay: SPR (BIAcore); analyte over immobilized cytokine; repeated calculation
BMP-6 [11] = assay: as above
TGF-β2 [12] = assay: as above

purified human TGF-β1 (human), sequence (P01137 279-390 limits assumed): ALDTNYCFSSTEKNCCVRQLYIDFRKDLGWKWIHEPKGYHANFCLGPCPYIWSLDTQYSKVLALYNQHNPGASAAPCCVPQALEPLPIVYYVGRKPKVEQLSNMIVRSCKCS
BMP-6, sequence (P22004 375-513): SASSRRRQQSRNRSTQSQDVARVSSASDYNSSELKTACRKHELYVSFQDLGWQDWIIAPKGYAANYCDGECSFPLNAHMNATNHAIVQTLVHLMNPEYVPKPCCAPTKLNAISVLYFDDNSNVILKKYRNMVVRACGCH

- percent neutralization of the antiproliferative activity of TGF-β1 (3H-thymidine incorporation, Mv1Lu cells) [1]: 150%
- IC50, inhibition of the anti-proliferative activity of TGF-β1 (12 pM) on Mv1Lu cells [2]: 4.2e-06 M
- proliferation of Mv1Lu cells without added cytokine (3H-thymidine incorporation) [3]: 8 pM
- IC50, block of the anti-proliferative activity of exogenously added TGF-β1 (18 pM) on Mv1Lu cells (FIG. 12) [4]: 3e-06 M
- IC50, reversal of BMP-2 inhibition of Mv1Lu cell growth [5]: 2 µM and 5 µM
- IC50, inhibition of calcium-deposition [6]: 10 µM
- Kd (BMP-4 [7]): 0.14 µM
- koff (BMP-4 [7]): 0.00058 s⁻¹
- kon (BMP-4 [7]): 4200 M⁻¹ s⁻¹
- Kd (BMP-6 [8]): 0.86 µM
- koff (BMP-6 [8]): 0.0025 s⁻¹
- kon (BMP-6 [8]): 2900 M⁻¹ s⁻¹
- koff (TGF-β2 [9]): 0.0032 s⁻¹
- kon (TGF-β2 [9]): 550 M⁻¹ s⁻¹
- Kd (BMP-4 [10]): 0.12 µM
- koff (BMP-4 [10]): 0.00051 s⁻¹
- kon (BMP-4 [10]): 4200 M⁻¹ s⁻¹
- Kd (BMP-6 [11]): 0.71 µM
- koff (BMP-6 [11]): 0.0021 s⁻¹
- kon (BMP-6 [11]): 2900 M⁻¹ s⁻¹
- Kd (TGF-β2 [12]): 4.4 µM
- koff (TGF-β2 [12]): 0.0024 s⁻¹
- kon (TGF-β2 [12]): 550 M⁻¹ s⁻¹
B1: bovine fetuin (protein)
chain: IPLDPVAGYKEPACDDPDTEQAALAAVDYINKHLPRGYKHTLNQIDSVKVWPRRPTGEVYDIEIDTLETTCHVLDPTPLANCSVRQQTQHAVEGDCDIHVLKQDGQFSVLFTKCDSSPDSAEDVRKLCPDCPLLAPLNDSRVVHAVEVALATFNAESNGSYLQLVEISRAQFVPLPVSVSVEFAVAATDCIAKEVVDPTKCNLLAEKQYGFCKGSVIQKALGGEDVRVTCTLFQTQPVIPQPQPDGAEAEAPSAVPDAAGPTPSAAGPPVASVVVGPSVVAVPLPLHRAHYDLRHTFSGVASVESSSGEAFHVGKTPIVGQPSIPGGPVRLCPGRIRYFKI
